Results as given in the nanobody polyreactivity screen of Harvey et al. (2022).

Assay: yeast display, Sf9 membrane polyspecificity reagent, FACS + sequencing; frameworks hold sequencing errors
Summary of the method: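 Genes from sorted yeast were amplified by colony PCR, read by MiSeq 2 × 250 sequencing and filtered on CDR length. These cells carried a synthetic nanobody library in Saccharomyces cerevisiae BJ5465 and were sorted by FACS into low and high (top ~1%) gates on anti-HA and streptavidin fluorescence. Polyreactivity is labelled according to the gate of origin.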

Row | Sequence | polyreactivity (PSR sort gate)
1 | QVQLVESGGGLVQAGGSLRLSCAASGRIFFRYAMGWYRPAPGKEREFVAAISGSAGSTYYADSVKGRFKISRDNAKNTVYLQMNSLKPEDTAVYYCAARKAKVSNGLKYDYWGQGTQVTVSS | high polyreactivity
2 | QVQLVESGGGLVQAGGSLRLSCAASGSNMGDNGMGWYRKAPGKERELVAAITNGGSTTYADSVKGRFTISRDNAKNTVYLQMNSLKPEDTAVYYCAADQQDRDQYSDWTEYDYWGQGTQVTVSS | low polyreactivity
3 | QVHLVESGGGLVQAGGSLRLSCDASGRTFFPYGMGWYRQAPGKQRELVATISWSGGSTHYADSVKGRFTISRDNAKNTVYLQMNSLKPEDNAVYYCNKTSFLVKLDYWGQVTQVTVSS | high polyreactivity
4 | QVQLVESGGGLVQAGGSLRLSCDASGSISIGYTMGWYRQAPGKERELVATISWSGGNTYYADSVKGRFTISRDNAKNTVYLQMNSLKPEDTAVYYCAARWYYYPLLYDYWGQGTQVTVSS | low polyreactivity
5 | QVQLVESGGGLVQAGGSLRLSCAASGSTFSYNAMGWYRQAPGKERELVAAISWSGGSTYYADSVKGRFTISRDNAKNTVYLQMNSLKPEDTAVYYCASDSPYGYYEGDYWGQGTQVTVSS | low polyreactivity
6 | QVQLVESGGGLVQAGGSLRLSCAAAGRLFGPYAMGWYGQAPGKERELVASISYSGGSTYYADSVKGRFTISRDNAKNTVYLQMNSLKAEDTAVYYCAKGGYWRGYNYWGQGTQVTVSS | low polyreactivity
7 | QVQLQEGGGLVQAGGSLRLSCPASGYISSRPAMGCYRQAPGKERAFVATIADGTSTYYADSVKCRFTISRDNAKNTVYLQMNSLKPEDTEVYYCAAAYNTEFYLSYWGQGTQVTVSS | high polyreactivity
8 | QVQHVESGGGLVQAGGSLRLSCAASGLTIWYYAIGWYRQAPGKEREFVAAITSRGGDTYYADSVKGRFTISRDNAKNTVYLQLNSLKPEDTGVYYCAVRPRYYGTYRYYYWGQGTQVTVSS | high polyreactivity
9 | QVKLEESGGGLVQAGGSLRLSCAASGRTFTTYSMGCYRQAPGKERELVAAISGSGGSTYYADSVKGRFTISRDNAKNSVYVQMNSLKPEDTAVYYCATAYYYHGGYYYPYDDYWGQGTQVTVSS | low polyreactivity
10 | QVQLVESGGGLVQAGGSLRLSCAASGFIIGVNDMGWYRQPPGKERELVAAITSGGNTNYADSVKGRFTISRDNAKNTVYLQMNSLKPEDTAVYYCIVDTRLPMDYWGQGTQVTVSS | low polyreactivity
11 | QVQLVESGGGLVQAGGSLRLSCAASGGIFFLYAMGWYRQAPGKETELVAAIRQDGGSTYYADSVKGRFTISRDNAKNTVYLQMNSLKPEDTAVYYCNAGYVKTGLEYYYWGQGPQVTVSS | low polyreactivity
12 | QVQLVESGGGLVQAGGSLRLSCAASGSTFYFIAMGWFRQAPGKEWELVAVIDGSGGFTYYADSVKGRFTISRDNAKNTVYLQMNSLKPEDTAVYYCAADKTQSHYDDWGQGTQVTVTS | high polyreactivity
13 | QVQLVESGGGLVQAGGSLRLSCAASGSTFTYNAMGWYRQAPGKERELVAAISSDGRTYYADSVKGRFTISRDNAKNTVYLQMNSLKPEDTAVYYCAAYFSGLTYGYYVAGYDYWGQGTQVTVSS | low polyreactivity
14 | QVQLVESGGGLVQAGGSLRLSWAASGSTFAYNDMGWYRQAPGKERELVASITSGGSTNYADSVKGRFTISRDNAKNTVYLQMNSLKPEDTAVYYCAARVRYRFDYWGQGTQVTVSS | low polyreactivity
15 | QVQLVESGGGLVQAGGSLRLSCAASGHIYVRYAMGWYRQAPGKERELVAAITSGGSTYYADSVKGRFTISRDNAKNTVYLQMNSLKPEDTAVYYCAARKQQYRFTHDYWGQGTQVTVSS | high polyreactivity
16 | QVQLVESGGCLVQAGGSLRLSCAASGFIFSEYAMGWYRQAPGKERELVVAIDVGGGSTYYADSVKGRFTISRDNAKNTVYLQMNSLKPEDTAVYYCAATQYGYWVPYQGFDYWGLGTQVTVSS | low polyreactivity

Row | Sequence | polyreactivity (PSR sort gate)
17 | QVQLVESGVGLVQAGGSLRLSCAASGSIFASYTMGWYIQAPGKERELVAAINRSGGSTYYADSVKGRFTISRDNAKNTVYFQMNSLKPDDTAVYYCAAGYIRRYYGYDYWGQGTQVTVSS | high polyreactivity
18 | QVQLVESAGGLVQAGGSLRLSCHASGLTVRTYDMGWYRQEPGKERELVAAITTGGSTYYADSVKGRFSISRDNAKNTVYLQMNSLKPEDTAVYYCAADFIRYINRLLYDFWGQGTQVTVSS | low polyreactivity
19 | HVQLVESGGGLVQAGGSLRLSCAASGSIFWGNAMGWYRQAAGKERELVAAISWGGGRTYYADSVKGRFTISRDTAKNTVYLQMNSLKPEDTAVYYCNTRYPYVVSTGYDYWGQGTQVTVSS | high polyreactivity
20 | QVQLVESGGGLVQAGGSLRLSCAASGRTFVSNAMGWYRQAPGKERELVAAINSGGSTTYADSVKGRFTISRDNAKNTVYLKMNSLIPEDTAVYYFARRSRYSKGYDYWGQGTQVTVSS | low polyreactivity
21 | QVQLVESGGGLVQAGGSLRLRCAASGITFTINAMGWYRQAPGTEGELVATISINGGSTNYADSVKGRFTISRDNAKNTVYLQMNSLKPEDTAVYYCAADALGPFRFQFFYTTAYVYWGQGTQVTVSS | low polyreactivity
22 | QVQLVESGGGLVQAGGSLRLSCAASGFTFRGYAMGWYRQAPGKERELVAAISKRGGSTYYADSVKGRFTISRDNAKNTVYLQMNSLKPEDTAVYYCNADYYIVGPPYAPTREDYWGQGTQVTVSS | high polyreactivity
23 | QVQLVESGGGLVQAGGSLRLSCAASGSIFPRYAMGWYRQAPGKERELVAAITGSGSSTYYADSVKGRFTISRDNAKNTVYLQMNSLKPEDTAVYYCAARKARPPCPHPFDYYWGEGTQVTVSS | low polyreactivity
24 | QVQLQESGGGLVQAGGSLRLSCAASGNISQVGVMGWYRQAPGKERELVATINFGGSSYYADSVKGRFTISRDNAKITVYLQMNSLKPEDTAVSYCNAKAYVWYLYDEFGYWGQGTQVTVSS | low polyreactivity
25 | QVQLVESGGGLVQAGGSLRLSCAASGRIFHLYAMGWYRQAPGKERELVAAITFSGGSTYYADSVKGRFTISRDNAKNTVYLQMNSLKPEDTAVYYCAKRSFYLFSSRLPFKYDYGGQGTQVTVSS | low polyreactivity
26 | QVQLVETGGGLVQAGGTLRLSCAASGSTFNAYAKGWYIQAPGKERELVAVISSSGGRTYYADSEKGRFTISRDNAKNTVYLQLNSLKPEDTAVYYCNADVKYLYNHWGQGTQVTVSS | high polyreactivity
27 | QVQLVESGGGLVQAGGRLRLSCAASGSICEPYVMGWYIQAPGKERELVAAIRQTGGSTYYADSVKGRFTISRDNAKNTVYLQMNSLKPEDTAVYYCNAEQKPSGLYDYRGVEGEMGYWGQGTQVTVSS | low polyreactivity
28 | QVQLVESGGGLVQAGGSLRLSCAASGRIFYSYAMGWYRQAPGKERELVATISSAGSTYYADSVKGRFTISRDNAKNTVYLQMNSLKPEDTAVYYCAARRPRRYGFWGQGTQVTVSS | high polyreactivity
29 | QDQHVESGGGFVQAGGSLRLICAASGYTFYGNPMGWYRQAPGKEREFVASINYNDDSTYYADSVKGRFTISLDNAKNTDYLQMNSLKPEDTAVYYCAAEYRTRGYHWIYYWGQGTQVTVSS | low polyreactivity
30 | QVQLVESGGGLVQAGGSLRLSCAASGFIFSWYAMGWSRQAPGKERELVAAISHDGGSTYYADSVKGRFTISRDNAKNTVYLQMNSLKPEDTAVYYCAAAFRAAGRTVRYYWGQGTQVTVSS | high polyreactivity
31 | QVQLVESGGGLDQAGGSLRLSCAASGSIFDTYAMGWYIQAPGKSWELVAAISWGGGSTYYADSVKGRFTISRDNAKNTVYLQMNSLKPEDTAVYYCATEYFFLGGWYEYWGQGTQVTVSS | high polyreactivity
32 | QVQLVDSGGGLVQAGGSLRLSCSASGIIIKWYTMVWYRQAPGKEREFVAAISYGGGSTSYADSVKGRFTISRDNAKNTVYLQMNSLKPEDTAVYYCAVVWQGAYSRTNYYYWGQGTQVTVSS | low polyreactivity
